Consider 18 sequences from the supplement of paper PMC12764529.

± gives the half width of the 95% confidence interval.

A short description of data set [1]: folding stability dG unfold from trypsin proteolysis; higher = more stable. An outline of the steps:
(§1)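 How resistant each design was to proteolysis was captured as K50, inferred by Bayesian fitting of sequencing counts. Unfolding free energy was then derived relative to a sequence-predicted unfolded-state K50 and a shared folded-state K50, per protease or combined. Digestion used trypsin and chymotrypsin at 11 threefold-diluted concentrations plus a no-protease condition, on mini-proteins under 80 residues without cysteine in a PA-tagged cDNA display construct. Designs were kept only when AlphaFold2 dimer inter-PAE was above 15.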

Data set [2] can be described thus: folding stability dG unfold from chymotrypsin proteolysis; higher = more stable. An outline of the steps:
as §1

Data set [3] can be described thus: folding stability dG unfold (combined trypsin and chymotrypsin); higher = more stable. The procedure, abridged: as §1

With “SAGGSELKPGDLVVRIEIKVEVEEVRVNENGEVEVKLRVEIRIEVRPLPPPPEPSEEELLNPDGEESAGGSA [r2_495_TrROS_Hall]”, the results for the “folding stability dG unfold” value in data set [1], in data set [2] and in data set [3] were 2.74 ± 0.27 kcal/mol, 1.89 ± 0.12 kcal/mol and 2.33 ± 0.27 kcal/mol, respectively.

“SAGGSELTLTVKVTVTVEVNGKTFTVEATLTLRFRPAPPPPKVRLERDADGNLRVTDANGKTRELRFSAGGS [r16_136_TrROS_Hall]”: the “folding stability dG unfold” value is 2.42 ± 0.17 kcal/mol in data set [1], 2.8 ± 0.1 kcal/mol in data set [2] and 2.61 ± 0.23 kcal/mol in data set [3].

On to “SAGGSEVTLKVKVRRKVFKDGKLVAEEEVEKEVRVKLPPPPKIELSPELRKALEENDLEKIKKALESAGGSA [r2_196_TrROS_Hall]”, for which the “folding stability dG unfold” value in data set [1] worked out at 1.43 ± 0.066 kcal/mol; in data set [2] it was 1.74 ± 0.053 kcal/mol; in data set [3], 1.62 ± 0.11 kcal/mol.

As to “SAGGSEWQPIYEFDLPGKKIKVYMPPDGNYRIEVEKKGKPVNFWVPPNMSPSSIDNMLDQAKEQLNSAGGSA [r2_243_TrROS]”, the “folding stability dG unfold” value is -0.0661 ± 0.25 kcal/mol in data set [1], 0.339 ± 0.16 kcal/mol in data set [2] and 0.343 ± 0.26 kcal/mol in data set [3].

As to “SAGGSFKIHWFDDPEAAEEAAKDMDPGKIIILPDPKNPKYYIVIVVKDKIFRYEIDNGNIKIEPIPSAGGSA [r2_280_TrROS]”, the “folding stability dG unfold” value in data set [1] stood at 1.86 ± 0.072 kcal/mol; in data set [2] it was 2.3 ± 0.029 kcal/mol; in data set [3] it was 2.11 ± 0.08 kcal/mol.

Turning to “SAGGSFTSEPNPNAPPDQPETITDPSKGVTTEVYFDTEKGTVSTTTTTTGDGTPTTSTSTTAIDPAAASAGG [r13_851_JUSTAS]”, the “folding stability dG unfold” value stood at 1.33 ± 0.15 kcal/mol in data set [1], 1.37 ± 0.085 kcal/mol in data set [2] and 1.34 ± 0.18 kcal/mol in data set [3].

As to “SAGGSGATYLSKYEIPLPNGKKLTIIEAYKNPETDLILYIAKTDDGTEYPFVYPSSWSPEDAIKALISSAGG [r13_470_TrMRF]”, the results for the “folding stability dG unfold” value in data set [1], in data set [2] and in data set [3] were 2.25 ± 0.082 kcal/mol, 2.91 ± 0.034 kcal/mol and 2.69 ± 0.086 kcal/mol, respectively.

For the sequence “SAGGSGKIKEAVEAAIENPGKTVEVTVERPDGYPVKIKVDPKTGKITLEVIHPDGTTSRKEFEIKPSAGGSA [r2_263_TrMRF]”, the entries for the “folding stability dG unfold” value in data set [1], in data set [2] and in data set [3] were 0.807 ± 0.071 kcal/mol, 0.669 ± 0.046 kcal/mol and 0.83 ± 0.17 kcal/mol, respectively.

For “SAGGSGMEAKLLEEALEAELKAKGYKVEVKVTVTKSFSVQEGGLPSSTTTVTIEITVRDPKTGKKVSAGGSA [r2_434_JUSTAS]”, the “folding stability dG unfold” value in data set [1] was determined as 1.62 ± 0.09 kcal/mol; in data set [2], 3.09 ± 0.1 kcal/mol; in data set [3] it was 2.56 ± 0.16 kcal/mol.

Regarding “SAGGSGPDVPLEEIARRIAEELGVPILSVDFERDPEAPVVTIRVTFRSPAPGRLEERTVVLPRELLSAGGSA [r2_156_JUSTAS]”, the “folding stability dG unfold” value in data set [1] amounted to 0.942 ± 0.035 kcal/mol; in data set [2], 0.759 ± 0.083 kcal/mol; in data set [3], 0.883 ± 0.068 kcal/mol.

“SAGGSGPSAPRTLTLDLPELPPGVKITVTVDFPGGRTFTGGVTERTATVDLPVPDGLEVESVTVQLESAGGS [r16_179_JUSTAS]”: the “folding stability dG unfold” value in data set [1] was determined as 0.00568 ± 0.1 kcal/mol; in data set [2], 0.00426 ± 0.16 kcal/mol; in data set [3] it was 0.0729 ± 0.085 kcal/mol.

“SAGGSGTMKVEVSKDGGKLTVKSEFPSGGYGVSDDSGKLATLEYDPEKGTTTVTFPDGTVRTLTYPGSAGGS [r16_602_JUSTAS]”: the “folding stability dG unfold” value in data set [1] came out at 0.0159 ± 0.11 kcal/mol; in data set [2] it was 0.647 ± 0.089 kcal/mol; in data set [3], 0.501 ± 0.12 kcal/mol.

For the sequence “SAGGSGVPLKITKVEVVGDKVVLTFEVPESLGTLKLNLTFELGGKPVEVEAEFDPETKYAVVVVGGSAGGSA [r2_261_TrMRF]”, the figures for the “folding stability dG unfold” value in data set [1], in data set [2] and in data set [3] were 2.37 ± 0.051 kcal/mol, 2.52 ± 0.061 kcal/mol and 2.49 ± 0.092 kcal/mol, respectively.

On to “SAGGSHEYTHEYRIPGGYAIRIKTKWRFNPGNNNIQIEEPDIELVPLPPVPPPPVPPEDADKNGIPPDDSAG [r5_393_TrROS]”, for which the “folding stability dG unfold” value in data set [1] was 1.19 ± 0.019 kcal/mol; in data set [2] it was 2.29 ± 0.12 kcal/mol; in data set [3], 1.74 ± 0.12 kcal/mol.

Take “SAGGSIEEIAETLRDLLAPPEYEVDVEVVEVEVDPINPRIKRVRLKATVYPPDGSSREIEFEIPFDELSAGG [r13_215_TrMRF]”: the “folding stability dG unfold” value in data set [1] was 1.68 ± 0.042 kcal/mol; in data set [2], 1.77 ± 0.029 kcal/mol; in data set [3], 1.71 ± 0.062 kcal/mol.

In the case of “SAGGSIEEILKAIPDAEKYEIDREKGIAYVTKKNTLYIVTVPRTSLPSPNGVLEPVSPISIKELPLESAGGS [r16_65_JUSTAS]”, the “folding stability dG unfold” value in data set [1] was found to be 0.128 ± 0.047 kcal/mol; in data set [2], 0.538 ± 0.1 kcal/mol; in data set [3] it was 0.447 ± 0.089 kcal/mol.

“SAGGSIRELAKELAREFAEEHGIKEVEVKVEPYPNGWIKIEVSVEGPNGEPIGEWPIQIPIPPDQISAGGSA [r2_153_TrROS]”: the “folding stability dG unfold” value in data set [1] turned out to be 0.199 ± 0.071 kcal/mol; in data set [2], 0.74 ± 0.018 kcal/mol; in data set [3], 0.561 ± 0.11 kcal/mol.

As for “SAGGSITLPPVELPNGEKVTVTIEITPVPGAPPEERYRVTVTRTNPKTGTTETTELEVTRKGSVVTLESAGG [r13_208_JUSTAS]”, the “folding stability dG unfold” value came to 2.16 ± 0.059 kcal/mol in data set [1], 1.5 ± 0.022 kcal/mol in data set [2] and 1.88 ± 0.099 kcal/mol in data set [3].
